Test results reported in publication PMC8254080 (Biochemistry and Biophysics Reports, 2021).
Read-outs that look alike come from different tables or passages of the source.

B1: Shigella MxiH (type 3 needle filament protomer) with N-terminal Strep-tag II and factor Xa cleavage site (natural protein, UniProt P0A223 1-83, looked up)
chain: MSVTVPNDDWTLSSLSETFDDGTQTLQGELTLALDKLAKNPSNPQLLAEYQSKLSEYTLYRNAQSNTVKVIKDVDAAIIQNFR
B2: Salmonella PrgI (type 3 needle filament protomer, SPI-1) (natural protein, Salmonella (strain SB905))
chain: MATPWSGYLDDVSAKFDTGVDNLQTQVTEALDKLAAKPSDPALLAAYQSKLSEYNLYRNAQSNTVKVFKDIDAAIIQNFR

What was measured:
cryo-EM structure [1] = molecular target: the molecule itself; experiment: cryo-EM structure
cryo-EM structure [2] = molecular target: the molecule itself; experiment: cryo-EM structure; remark: listed apart in the source

Protein | binding result (cryo-EM structure [1]) | binding result (cryo-EM structure [2])
B1 | binds | 
B2 |  | binds
